{"source": "patent US20240318146A1", "about": "“VASCULARIZED ORGANOIDS” (CHILDREN’S HOSPITAL MEDICAL CENTER, priority 2021, published 2024)", "key": {"mesendoderm spheroids": {"system": "mesendoderm spheroids", "details": "50 ng/mL, day 3 to day 7 (FIG. 3C)", "description": "To form various organs properly, the endoderm transforms into a primitive gut tube and is then regionalized along the dorsal-ventral (D-V) and anterior-posterior (A-P) axis into foregut, midgut, and hindgut under the control of various signaling pathways: BMP and TGF-b inhibition facilitate foregut formation, while Wnt and FGF activation facilitate mid/hindgut development."}, "[1]": {"system": "Human pluripotency stem cells", "assay": "Mesoderm vs. endoderm induction in human pluripotent stem cell spheroids (FOXA2/HAND1 staining, first three days)", "format": "cell-based", "method": "To recapitulate the gut tube organogenesis in vitro, a 3D suspension culture system to differentiate endoderm and mesoderm concomitantly from human iPSCs was established. By fine-tuning the dosage and timing of Wnt, Nodal (or TGF-b), and BMP activation, mesendoderm spheroids containing both definitive endodermal (DE, FOXA2+) and lateral plate mesoderm (LPM, HAND1+) populations were generated (FIG. 2A). It was also determined that ˜28 hours of the Wnt activation was a good duration for generating appropriate amounts of both DE and LPM populations from the iPSCs (approximately 1:1) (FIG. 2B). LPM derived splanchnic mesoderm (SM, FOXF1+) further gives rise to the mesenchyme surrounding the primitive gut tube. The SM will then differentiate into the connective tissue, smooth muscle cells (SMCs), and blood vessels of the endodermal organs.\n• a) At Day −1, dissociate human iPSCs or human ESCs into single cells. • b) Using an Aggrewell plate (StemCell), or other compatible cell collection plate, generate spheroids of the pluripotent cells. Note: the number of cells in each microwell should be between 500-2000 cells. Accordingly, the spheroid diameter range should be from 50-200 μm. • c) Culture the cells in steady condition (37° C. cell incubator) overnight. Note: usually, the spheroid will form at day 0. […]"}, "Embryoid bodies (EBs)": {"system": "Embryoid bodies (EBs)", "assay": "Single-cell RNA-seq of Day 3 meso/endoderm organoids", "format": "cell-based, human", "details": "accumulated stimulation (0, 1, 2, and 3 days), scRNA-seq at day 3 (FIG. 16E)", "description": "Embryoid bodies (EBs) receiving various duration of BMP4 stimulation (0, 1, 2, and 3 days) were subjected to single-cell RNA-seq at day 3 (FIG. 16A). They contained both mesoderm and endoderm populations. FIG. 16B depicts a feature plot of cell distributions under different BMP4 treatment durations. FIG. 16C depicts clustering of d3 meso/endoderm based on marker genes. FIG. 16D depicts a reference map comparison of d3 meso/endoderm to CS7 gastrulation human embryo AM: Advanced mesoderm; EM: Emergent mesoderm; PS: Primitive Streak. FIG. 16E depicts a cluster projection of day 3 meso/endoderm organoids to mouse early gastrulation embryos. i. UMAP of mouse E6.5˜E8.5 embryos. ii. Reverse projection of day 3 organoids to mouse embryos map."}, "[2]": {"system": "human vascularized gut tube organoids", "assay": "Single-cell RNA-seq of Day 7 vascularized foregut and mid/hindgut organoids, reverse projection to mouse E8.75 gut tube atlas", "format": "cell-based", "description": "FIG. 17A depicts representative UMAP projection of foregut organoid (1-day treatment of BMP4 from day 1-3) and mid/hindgut organoid (3-days treatment of BMP4 from day 1-3). FIG. 17B-D depict reverse projection of human vascularized gut tube organoids to mouse E8.75 gut tube atlas. FIG. 17B depicts mouse E8.75 embryonic gut tube containing both anterior (A) and posterior (P) portion. Gut tube (endoderm), mesenchyme, and endothelium populations are segregated into A-P subclusters. FIG. 17C depicts Day 7 foregut organoid reverse projection to mouse E8.75 gut tube. […] FIG. 17D depicts Day 7 mid/hindgut organoid reverse projection to mouse E8.75 tube."}}, "data": [{"molecule": "VEGF", "values": [{"measurement": "vascular network (CD31+) surrounding the FOXA2+ epithelial layer", "setting": "mesendoderm spheroids", "value": "a significant amount of a vascular network (CD31+)"}]}, {"molecule": "Cc1c[nH]c(-c2cnc(NCCNc3ccc(C#N)cn3)nc2-c2ccc(Cl)cc2Cl)n1", "note": "[CHIR99201, reference compound]", "values": [{"measurement": "mesoderm/endoderm ratio", "setting": "[1]; Activation of Wnt under different durations, first three days (FIG. 14A)", "value": "drastically changed mesoderm/endoderm ratio"}]}, {"molecule": "BMP4: BMP pathway activator, BMP protein (protein, UniProt P12644 293-408, looked up) Bone morphogenetic protein 4: SPKHHSQRARKKNKNCRRHSLYVDFSDVGWNDWIVAPPGYQAFYCHGDCPFPLADHLNSTNHAIVQTLVNSVNSSIPKACCVPTELSAISMLYLDEYDKVVLKNYQEMVVEGCGCR", "values": [{"measurement": "mesoderm/endoderm ratio", "setting": "[1]; Prolonged treatment (FIG. 14B)", "value": "increased mesoderm/endoderm ratio"}, {"measurement": "mesenchymal population", "setting": "Embryoid bodies (EBs)", "value": "augmented mesenchymal population"}, {"measurement": "neural lineage", "setting": "Embryoid bodies (EBs)", "value": "reduced neural lineage"}, {"measurement": "anterior gut tube endoderm and endothelium populations", "setting": "[2]; Day 7 foregut organoid, one-day treatment compared to no BMP4 (FIG. 17C)", "value": "generated purer anterior gut tube endoderm and more anterior endothelium"}, {"measurement": "posterior gut tube endoderm, mesenchyme, and endothelium populations", "setting": "[2]; Day 7 mid/hindgut organoid, longer treatment during the first three-day differentiation (FIG. 17D)", "value": "induced more posterior gut tube endoderm, mesenchyme, and endothelium"}]}]}
